# From PMC6261655, “Harnessing a previously unidentified capability of bacterial allosteric transcription factors for sensing diverse small molecules in vitro” (Science Advances, 2018)
# B1: DNATetR-0 (dsDNA)
# DNA 1: CCTCCGATTTTCAGATTGACACTCTATCATTGATAGGGATATATTCCAACTCTATCAAT
# DNA 2: ATTGATAGAGTTGGAATATATCCCTATCAATGATAGAGTGTCAATCTGAAAATCGGAGG
# B2: DNATetR-5 (dsDNA)
# DNA 1: B1 DNA 1
# DNA 2: ATTGATAGAGTTGGAATATATCCCTATCAATG
# DNA 3: ATAGAGTGTCAATCTGAAAATCGGAGG
# modifications: nick in bottom strand
# B3: DNATetR-9 (dsDNA)
# DNA 1: B1 DNA 1
# DNA 2: ATTGATAGAGTTGGAATATATCCCT
# DNA 3: ATCAATGATAGAGTGTCAATCTGAAAATCGGAGG
# modifications: nick in bottom strand
# B4: DNATetR-1 (dsDNA)
# DNA 1: B1 DNA 1
# DNA 2: ATTGATAGAGTTGGAATATATCCCTATCAATGATAGAGTG
# DNA 3: TCAATCTGAAAATCGGAGG
# modifications: nick in bottom strand
# B5: DNATetR-4 (dsDNA)
# DNA 1: B1 DNA 1
# DNA 2: ATTGATAGAGTTGGAATATATCCCTATCAATGAT
# DNA 3: AGAGTGTCAATCTGAAAATCGGAGG
# modifications: nick in bottom strand
# B6: DNATetR-12 (dsDNA)
# DNA 1: B1 DNA 1
# DNA 2: ATTGATAGAGTTGGAATAT
# DNA 3: ATCCCTATCAATGATAGAGTGTCAATCTGAAAATCGGAGG
# modifications: nick in bottom strand
# B7: DNATetR-10 (dsDNA)
# DNA 1: B1 DNA 1
# DNA 2: ATTGATAGAGTTGGAATATATCC
# DNA 3: CTATCAATGATAGAGTGTCAATCTGAAAATCGGAGG
# modifications: nick in bottom strand
# B8: DNATetR-3 (dsDNA)
# DNA 1: B1 DNA 1
# DNA 2: ATTGATAGAGTTGGAATATATCCCTATCAATGATAG
# DNA 3: AGTGTCAATCTGAAAATCGGAGG
# modifications: nick in bottom strand
# B9: DNATetR-8 (dsDNA)
# DNA 1: B1 DNA 1
# DNA 2: ATTGATAGAGTTGGAATATATCCCTAT
# DNA 3: CAATGATAGAGTGTCAATCTGAAAATCGGAGG
# modifications: nick in bottom strand
# B10: DNATetR-11 (dsDNA)
# DNA 1: B1 DNA 1
# DNA 2: ATTGATAGAGTTGGAATATAT
# DNA 3: CCCTATCAATGATAGAGTGTCAATCTGAAAATCGGAGG
# modifications: nick in bottom strand
# B11: DNATetR-2 (dsDNA)
# DNA 1: B1 DNA 1
# DNA 2: ATTGATAGAGTTGGAATATATCCCTATCAATGATAGAG
# DNA 3: TGTCAATCTGAAAATCGGAGG
# modifications: nick in bottom strand
# B12: DNATetR-6 (dsDNA)
# DNA 1: B1 DNA 1
# DNA 2: ATTGATAGAGTTGGAATATATCCCTATCAA
# DNA 3: TGATAGAGTGTCAATCTGAAAATCGGAGG
# modifications: nick in bottom strand
# B13: DNATetR-7 (dsDNA)
# DNA 1: B1 DNA 1
# DNA 2: ATTGATAGAGTTGGAATATATCCCTATCA
# DNA 3: ATGATAGAGTGTCAATCTGAAAATCGGAGG
# modifications: nick in bottom strand
# B14: DNAAvaR1-0 (dsDNA)
# DNA 1: CGCAAGAGGGACTTGAAGACAAAACCGTCTAGTACGTATCTTTGACCTCCAGCTCTTCC
# DNA 2: GGAAGAGCTGGAGGTCAAAGATACGTACTAGACGGTTTTGTCTTCAAGTCCCTCTTGCG
# B15: DNAAvaR1-10 (dsDNA)
# DNA 1: B14 DNA 1
# DNA 2: GGAAGAGCTGGAGGTCAAAGAT
# DNA 3: ACGTACTAGACGGTTTTGTCTTCAAGTCCCTCTTGCG
# modifications: nick in bottom strand
# B16: DNAAvaR1-8 (dsDNA)
# DNA 1: B14 DNA 1
# DNA 2: GGAAGAGCTGGAGGTCAAAGATACGT
# DNA 3: ACTAGACGGTTTTGTCTTCAAGTCCCTCTTGCG
# modifications: nick in bottom strand
# B17: DNAAvaR1-2 (dsDNA)
# DNA 1: B14 DNA 1
# DNA 2: GGAAGAGCTGGAGGTCAAAGATACGTACTAGACGGTTT
# DNA 3: TGTCTTCAAGTCCCTCTTGCG
# modifications: nick in bottom strand
# B18: DNAAvaR1-12 (dsDNA)
# DNA 1: B14 DNA 1
# DNA 2: GGAAGAGCTGGAGGTCAA
# DNA 3: AGATACGTACTAGACGGTTTTGTCTTCAAGTCCCTCTTGCG
# modifications: nick in bottom strand
# B19: DNAAvaR1-5 (dsDNA)
# DNA 1: B14 DNA 1
# DNA 2: GGAAGAGCTGGAGGTCAAAGATACGTACTAGA
# DNA 3: CGGTTTTGTCTTCAAGTCCCTCTTGCG
# modifications: nick in bottom strand
# B20: DNAAvaR1-11 (dsDNA)
# DNA 1: B14 DNA 1
# DNA 2: GGAAGAGCTGGAGGTCAAAG
# DNA 3: ATACGTACTAGACGGTTTTGTCTTCAAGTCCCTCTTGCG
# modifications: nick in bottom strand
# B21: DNAAvaR1-4 (dsDNA)
# DNA 1: B14 DNA 1
# DNA 2: GGAAGAGCTGGAGGTCAAAGATACGTACTAGACG
# DNA 3: GTTTTGTCTTCAAGTCCCTCTTGCG
# modifications: nick in bottom strand
# B22: DNAAvaR1-7 (dsDNA)
# DNA 1: B14 DNA 1
# DNA 2: GGAAGAGCTGGAGGTCAAAGATACGTAC
# DNA 3: TAGACGGTTTTGTCTTCAAGTCCCTCTTGCG
# modifications: nick in bottom strand
# B23: DNAAvaR1-1 (dsDNA)
# DNA 1: B14 DNA 1
# DNA 2: GGAAGAGCTGGAGGTCAAAGATACGTACTAGACGGTTTTG
# DNA 3: TCTTCAAGTCCCTCTTGCG
# modifications: nick in bottom strand
# B24: DNAAvaR1-6 (dsDNA)
# DNA 1: B14 DNA 1
# DNA 2: GGAAGAGCTGGAGGTCAAAGATACGTACTA
# DNA 3: GACGGTTTTGTCTTCAAGTCCCTCTTGCG
# modifications: nick in bottom strand
# B25: DNAAvaR1-9 (dsDNA)
# DNA 1: B14 DNA 1
# DNA 2: GGAAGAGCTGGAGGTCAAAGATAC
# DNA 3: GTACTAGACGGTTTTGTCTTCAAGTCCCTCTTGCG
# modifications: nick in bottom strand
# B26: DNAAvaR1-3 (dsDNA)
# DNA 1: B14 DNA 1
# DNA 2: GGAAGAGCTGGAGGTCAAAGATACGTACTAGACGGT
# DNA 3: TTTGTCTTCAAGTCCCTCTTGCG
# modifications: nick in bottom strand
# Target: T1, HucR (Deinococcus radiodurans, UniProt Q9RV71)
# T1 sequence (Q9RV71 1-181): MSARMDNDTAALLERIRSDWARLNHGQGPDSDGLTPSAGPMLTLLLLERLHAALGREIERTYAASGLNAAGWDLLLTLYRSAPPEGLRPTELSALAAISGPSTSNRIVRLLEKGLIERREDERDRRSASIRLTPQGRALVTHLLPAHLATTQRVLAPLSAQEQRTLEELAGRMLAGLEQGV
# Test: isothermal titration calorimetry
# Type: binding
# Conditions: not given
row,Molecule,Kd [nM]
1,O=c1[nH]c(=O)c2[nH]c(=O)[nH]c2[nH]1 [UA],9350 ± 990

# Target: HosA (Escherichia coli, UniProt Q7ABA6)
# Sequence (Q7ABA6 whole entry, looked up): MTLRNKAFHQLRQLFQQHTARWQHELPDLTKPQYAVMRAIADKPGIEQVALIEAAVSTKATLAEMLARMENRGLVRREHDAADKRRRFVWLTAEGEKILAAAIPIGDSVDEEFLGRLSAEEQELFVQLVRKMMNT
# Test: isothermal titration calorimetry
# Type: binding
# Conditions: not given
row,Molecule,Kd [nM]
1,O=C(O)c1ccc(O)cc1 [4-HBA],4740 ± 250

# Target: TetR (Escherichia coli, UniProt P04483 1-207)
# Sequence (P04483 whole entry): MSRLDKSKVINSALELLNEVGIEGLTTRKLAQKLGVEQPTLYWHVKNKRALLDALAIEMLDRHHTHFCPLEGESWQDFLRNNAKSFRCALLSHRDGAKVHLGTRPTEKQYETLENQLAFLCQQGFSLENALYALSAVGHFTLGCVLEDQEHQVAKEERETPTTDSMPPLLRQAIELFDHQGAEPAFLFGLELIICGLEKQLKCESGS
# Test: BLI; BLI: HBS-EP (10 mM Hepes, 15 mM NaCl, 3 mM EDTA, 0.005% Tween 20, 0.1% BSA, pH 7.4), temperature not stated; EMSA: 20 mM Tris-HCl pH 7.5, 2 mM DTT, 5 mM MgCl2
# Conditions: protein: recombinant; chain copies: 2; label: 5'-biotin on strand 1; blunt
row,Molecule,Kd [nM]
1,B1,1.08 ± 0.06

# Same assay, conditions: protein: recombinant; chain copies: 2; label: 5'-biotin on strand 1; blunt, nicked 1:2 1:3
row,Molecule,Kd [nM]
1,B2,1.91 ± 0.03
2,B3,0.67 ± 0.03
3,B4,1.3 ± 0.04
4,B5,1.89 ± 0.07
5,B6,1.1 ± 0.05
6,B7,1.22 ± 0.03
7,B8,1.72 ± 0.11
8,B9,1.52 ± 0.044
9,B10,1.58 ± 0.04
10,B11,1.78 ± 0.07
11,B12,2 ± 0.59
12,B13,1.85 ± 0.06

# Target: T2, AvaR1 (Streptomyces avermitilis, UniProt Q82H41 1-234)
# T2 sequence: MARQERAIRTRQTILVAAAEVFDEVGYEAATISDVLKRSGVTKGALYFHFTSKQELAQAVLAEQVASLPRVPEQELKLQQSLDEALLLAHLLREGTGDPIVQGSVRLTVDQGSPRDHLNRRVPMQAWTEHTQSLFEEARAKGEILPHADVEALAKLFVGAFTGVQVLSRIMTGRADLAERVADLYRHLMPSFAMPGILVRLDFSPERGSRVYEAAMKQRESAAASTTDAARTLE
# Test: as above
# Conditions: protein: recombinant; label: 5'-biotin on strand 1; blunt
row,Molecule,Kd [nM]
1,B14,11.7 ± 0.028

# Same assay, conditions: protein: recombinant; label: 5'-biotin on strand 1; blunt, nicked 1:2 1:3
row,Molecule,Kd [nM]
1,B15,11 ± 0.026
2,B16,14.1 ± 0.025
3,B17,15.1 ± 0.034
4,B18,8.33 ± 0.015
5,B19,14 ± 0.027
6,B20,13 ± 0.027
7,B21,16 ± 0.032
8,B22,10.8 ± 0.03
9,B23,18.3 ± 0.052
10,B24,12.6 ± 0.021
11,B25,22.2 ± 0.245
12,B26,17 ± 0.052
